Data on one substance can be found in publication PMC2133180.

The target of the experiment is perlecan purified from Englebreth-Holm-Swarm tumor (UniProt Q05793). In words: SPR. A general note: Surface plasmon resonance follows binding to a sensor surface in real time, without labels.
Chain of UniProt Q05793 (Q05793 22-3707): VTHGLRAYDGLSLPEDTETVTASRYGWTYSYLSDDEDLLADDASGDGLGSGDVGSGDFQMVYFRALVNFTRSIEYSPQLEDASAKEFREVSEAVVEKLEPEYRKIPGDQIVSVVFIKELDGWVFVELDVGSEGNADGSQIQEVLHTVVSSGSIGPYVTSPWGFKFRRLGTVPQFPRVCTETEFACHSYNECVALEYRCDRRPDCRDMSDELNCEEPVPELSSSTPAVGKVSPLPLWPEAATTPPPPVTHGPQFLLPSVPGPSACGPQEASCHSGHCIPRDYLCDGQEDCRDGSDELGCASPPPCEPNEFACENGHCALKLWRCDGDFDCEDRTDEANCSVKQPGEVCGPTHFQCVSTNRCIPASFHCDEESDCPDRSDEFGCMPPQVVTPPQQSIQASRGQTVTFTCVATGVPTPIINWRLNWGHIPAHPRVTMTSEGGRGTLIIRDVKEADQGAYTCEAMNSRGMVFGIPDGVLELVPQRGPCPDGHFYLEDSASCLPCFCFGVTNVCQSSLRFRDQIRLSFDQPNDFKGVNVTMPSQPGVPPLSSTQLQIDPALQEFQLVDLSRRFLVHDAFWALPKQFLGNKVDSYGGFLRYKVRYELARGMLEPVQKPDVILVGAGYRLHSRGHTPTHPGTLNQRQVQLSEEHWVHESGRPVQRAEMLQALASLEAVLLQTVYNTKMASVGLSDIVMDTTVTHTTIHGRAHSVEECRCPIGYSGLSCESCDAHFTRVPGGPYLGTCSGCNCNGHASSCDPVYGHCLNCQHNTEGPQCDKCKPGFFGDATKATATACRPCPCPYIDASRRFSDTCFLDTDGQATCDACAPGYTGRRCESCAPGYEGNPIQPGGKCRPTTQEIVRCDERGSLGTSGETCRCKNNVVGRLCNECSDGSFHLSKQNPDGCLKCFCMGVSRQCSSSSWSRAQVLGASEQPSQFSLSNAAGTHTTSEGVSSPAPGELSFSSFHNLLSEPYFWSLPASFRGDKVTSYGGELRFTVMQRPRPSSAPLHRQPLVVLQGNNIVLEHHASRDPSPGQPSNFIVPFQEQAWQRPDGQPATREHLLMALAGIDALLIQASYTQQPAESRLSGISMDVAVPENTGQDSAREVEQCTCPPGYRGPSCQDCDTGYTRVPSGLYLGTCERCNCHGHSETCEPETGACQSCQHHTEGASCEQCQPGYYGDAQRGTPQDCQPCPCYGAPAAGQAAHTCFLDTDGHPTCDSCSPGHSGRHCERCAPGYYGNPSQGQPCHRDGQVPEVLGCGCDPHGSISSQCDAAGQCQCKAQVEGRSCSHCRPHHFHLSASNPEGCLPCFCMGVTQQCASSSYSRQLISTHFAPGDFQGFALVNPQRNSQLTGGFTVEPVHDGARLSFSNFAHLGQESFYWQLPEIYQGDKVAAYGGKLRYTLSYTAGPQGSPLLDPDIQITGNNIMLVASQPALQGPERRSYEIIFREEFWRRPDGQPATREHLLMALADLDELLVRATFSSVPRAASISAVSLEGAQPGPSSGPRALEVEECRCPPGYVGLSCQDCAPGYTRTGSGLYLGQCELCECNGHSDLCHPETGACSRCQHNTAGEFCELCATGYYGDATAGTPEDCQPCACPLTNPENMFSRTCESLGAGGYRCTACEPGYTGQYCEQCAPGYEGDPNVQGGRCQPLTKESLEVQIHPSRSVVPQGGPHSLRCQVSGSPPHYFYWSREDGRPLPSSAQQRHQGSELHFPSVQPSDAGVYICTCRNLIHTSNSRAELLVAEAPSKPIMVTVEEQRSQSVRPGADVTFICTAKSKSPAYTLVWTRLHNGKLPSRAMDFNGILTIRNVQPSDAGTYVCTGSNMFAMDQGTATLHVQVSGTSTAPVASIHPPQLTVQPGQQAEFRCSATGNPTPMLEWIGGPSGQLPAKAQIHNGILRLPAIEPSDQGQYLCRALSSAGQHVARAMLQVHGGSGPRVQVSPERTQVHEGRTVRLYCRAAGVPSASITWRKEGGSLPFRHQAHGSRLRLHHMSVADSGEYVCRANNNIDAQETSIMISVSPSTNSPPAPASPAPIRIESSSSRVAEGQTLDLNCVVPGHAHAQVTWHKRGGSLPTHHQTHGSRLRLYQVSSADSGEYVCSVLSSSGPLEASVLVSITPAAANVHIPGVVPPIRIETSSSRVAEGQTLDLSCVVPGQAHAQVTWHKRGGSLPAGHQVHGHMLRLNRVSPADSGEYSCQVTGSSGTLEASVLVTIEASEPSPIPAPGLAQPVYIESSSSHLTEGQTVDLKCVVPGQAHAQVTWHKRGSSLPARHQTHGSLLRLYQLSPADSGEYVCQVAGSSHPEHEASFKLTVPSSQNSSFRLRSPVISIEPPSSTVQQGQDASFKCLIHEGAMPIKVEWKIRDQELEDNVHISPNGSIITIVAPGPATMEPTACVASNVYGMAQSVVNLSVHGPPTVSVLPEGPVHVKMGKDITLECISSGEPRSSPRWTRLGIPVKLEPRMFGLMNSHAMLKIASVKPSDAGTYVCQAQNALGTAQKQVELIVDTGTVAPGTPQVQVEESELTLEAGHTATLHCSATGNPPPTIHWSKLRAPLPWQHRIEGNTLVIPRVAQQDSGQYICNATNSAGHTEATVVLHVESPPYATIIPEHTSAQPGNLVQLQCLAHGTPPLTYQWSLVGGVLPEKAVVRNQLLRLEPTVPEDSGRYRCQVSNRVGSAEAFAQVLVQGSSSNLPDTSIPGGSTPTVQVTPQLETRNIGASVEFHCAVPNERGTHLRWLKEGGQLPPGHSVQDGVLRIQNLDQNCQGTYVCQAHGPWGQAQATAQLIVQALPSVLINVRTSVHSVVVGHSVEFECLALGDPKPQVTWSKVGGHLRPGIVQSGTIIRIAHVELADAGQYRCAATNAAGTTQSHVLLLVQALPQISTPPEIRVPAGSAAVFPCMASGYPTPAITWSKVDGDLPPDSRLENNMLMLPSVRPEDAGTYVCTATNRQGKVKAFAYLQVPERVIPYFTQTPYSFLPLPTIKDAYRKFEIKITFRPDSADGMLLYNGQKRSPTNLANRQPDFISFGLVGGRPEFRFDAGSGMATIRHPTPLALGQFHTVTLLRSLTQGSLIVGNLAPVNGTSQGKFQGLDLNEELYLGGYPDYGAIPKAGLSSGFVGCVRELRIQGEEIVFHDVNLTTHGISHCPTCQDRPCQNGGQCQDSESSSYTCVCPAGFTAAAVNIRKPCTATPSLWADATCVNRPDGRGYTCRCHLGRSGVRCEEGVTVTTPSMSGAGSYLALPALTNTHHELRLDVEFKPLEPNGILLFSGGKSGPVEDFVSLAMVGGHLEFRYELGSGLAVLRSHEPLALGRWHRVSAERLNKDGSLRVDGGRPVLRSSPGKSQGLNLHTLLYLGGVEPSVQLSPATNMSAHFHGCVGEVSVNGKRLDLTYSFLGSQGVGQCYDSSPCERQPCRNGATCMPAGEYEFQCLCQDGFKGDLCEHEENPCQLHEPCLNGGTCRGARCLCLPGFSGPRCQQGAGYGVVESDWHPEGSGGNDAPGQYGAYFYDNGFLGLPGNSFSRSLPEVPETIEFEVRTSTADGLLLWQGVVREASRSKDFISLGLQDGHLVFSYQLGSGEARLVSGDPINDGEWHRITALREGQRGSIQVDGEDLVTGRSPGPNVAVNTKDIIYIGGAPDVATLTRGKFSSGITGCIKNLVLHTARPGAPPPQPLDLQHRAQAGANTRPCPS

For the substance “quail A12 collagenic-tailed acetylcholinesterase (asymmetric form) (complex)”, the fold change in RU over the G2/G4 value worked out at 270 fold.
